Assays:
Assay type in all cases: cell-based, human
[1] = test system: wild-type and variant SNAP-GIPR; assay: Single-concentration GIP cAMP response by HTRF in AD293 cells; conditions: Fig S3F, HTRF, mean;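 also: ratio to experiment-wide average response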
Protocol: (§1) All variants were tested in parallel on each occasion to control for transfection efficiency differences between experiments.

[2] = test system: wild-type and variant SNAP-GIPR; assay: Constitutive and agonist-mediated internalization, reversible SNAP-tag labelling, AD293 cells; parameters: key to Internalisation, Vehicle / Internalisation, +GIP / Internalisation, GIP-only: % internalization: residual fluorescence after Mesna vs pre-Mesna; Surface expression: unit not given here; conditions: Mean
How it was run: (§2)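 Percentage internalization is read as the fraction of specific SNAP fluorescence that survives Mesna stripping, compared with the image taken before Mesna. Wells are imaged in TNE buffer at pH 8.6 and again after 10 min.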

[3] = test system: wild-type and variant SNAP-GIPR; assay: Surface SNAP-GIPR expression (SNAP-tag labelling) in AD293 cells; conditions: for AD293 Surface: Fig S3E, mean; for Surface SNAP-GIPR expression: sheet Fig 1C;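 as to all read-outs here: scaled to the experimental average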
How it was run: (§3)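 Read-out: whole-cell fluorescence of surface-only SNAP label (Alexa Fluor 647, 500 nM, 10 min, RT), wide-field 20X, several FOVs per well. Flat-field corrected, phase-contrast masked, nontransfected-well signal subtracted; normalized to experiment mean or wild-type.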

[4] = test system: wild-type and variant SNAP-GIPR; assay: Surface SNAP-GIPR expression (SNAP-tag labelling) in INS-1 cells; conditions: Fig 4G; Mean
How it was run: as §3

[5] = test system: wild-type and variant SNAP-GIPR; assay: cADDis cAMP imaging in AD293 cells, ensemble, expression-matched and per decile; conditions: Fig S3F, cADDis, mean;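 also: Ensemble cells as % of IBMX/FSK response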
How it was run: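 AD293 cells were transfected with SNAP-GIPR constructs and cotransduced with the cADDis Green Up cAMP sensor, then labeled after 24 h with 500 nM SNAP-Surface Alexa Fluor 647. Per-cell cADDis intensity was tracked at 37°C in KRBH with 6 mM glucose and 0.1% BSA.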

[6] = test system: wild-type and variant SNAP-GIPR; assay: Single-concentration GIP cAMP response by HTRF in INS-1 cells; conditions: Fig S3E, mean
Protocol: as §1

[7] = test system: wild-type and variant SNAP-GIPR; assay: Constitutive and agonist-mediated internalization, reversible SNAP-tag labelling, INS-1 cells; parameters: key to Internalisation, GIP-only / Internalisation, Vehicle / Internalisation, +GIP: % internalization: residual fluorescence after Mesna vs pre-Mesna; conditions: Mean
How it was run: as §2

B1: A207V (protein)
chain: RAETGSKGQTAGELYQRWERYRRECQETLAAAEPPSGLACNGSFDMYVCWDYAAPNATARASCPWYLPWHHHVAAGFVLRQCGSDGQWGLWRDHTQCENPEKNEAFLDQRLILERLQVMYTVGYSLSLATLLLALLILSLFRRLHCTRNYIHINLFTSFMLRAAAILSRDRLLPRPGPYLGDQALVLWNQALAACRTAQIVTQYCVGANYTWLLVEGVYLHSLLVLVGGSEEGHFRYYLLLGWGAPALFVIPWVIVRYLYENTQCWERNEVKAIWWIIRTPILMTILINFLIFIRILGILLSKLRTRQMRCRDYRLRLARSTLTLVPLLGVHEVVFAPVTEEQARGALRFAKLGFEIFLSSFQGFLVSVLYCFINKEVQSEIRRGWHHCRLRRSLGEEQRQLPERAFRALPSGSGPGEVPTSRGLSSGTLPGPGNEASRELESYC
AD293 100 pM HTRF ([1]; AD293, 100 pM): 1.772
AD293 100 nM HTRF ([1]; AD293, 100 nM): 1.3964
+GIP internalisation (100 nM) ([2]; Fig 4E, GIP 100 nM): 0.7742
GIP-specific internalisation (100 nM) ([2]; Fig 4E, GIP 100 nM): 0.2212
Constitutive internalisation (100 nM) ([2]; Fig 4E): 0.553
Surface expression ([2]; Fig 4E): 1.34
Internalisation, +GIP ([2]; Fig S4C, AD293): 58.1109
Internalisation, GIP-only ([2]; Fig S4C, AD293): 16.6766
Internalisation, Vehicle ([2]; Fig S4C, AD293): 41.4343
AD293 Surface ([3]; column repeated, paired with cAMP 100 nM): 1.462
AD293 Surface ([3]; paired with cAMP 100 pM): 1.462
Surface SNAP-GIPR expression ([3]; replicate 1): 1.611
Surface SNAP-GIPR expression ([3]; replicate 2): 2.305
Surface SNAP-GIPR expression ([3]; replicate 3): 1.718
Surface SNAP-GIPR expression ([3]; replicate 4): 1.422
Surface SNAP-GIPR expression ([3]; replicate 5): 1.389
Surface SNAP-GIPR expression ([3]; replicate 6): 1.632
Surface SNAP-GIPR expression ([3]; replicate 7): 1.104
Surface SNAP-GIPR expression ([3]; replicate 8): 1.459
Surface SNAP-GIPR expression ([3]; replicate 9): 1.373
Surface SNAP-GIPR expression ([3]; replicate 10): 1.394
Surface SNAP-GIPR expression ([3]; replicate 11): 1.581
Surface SNAP-GIPR expression ([3]; replicate 12): 1.452
Surface SNAP-GIPR expression ([3]; replicate 13): 1.286
Surface SNAP-GIPR expression ([3]; replicate 14): 1.785
Surface SNAP-GIPR expression ([3]; replicate 15): 1.758
Surface SNAP-GIPR expression ([3]; replicate 16): 1.437
Surface SNAP-GIPR expression ([3]; replicate 17): 1.378
Surface SNAP-GIPR expression ([3]; replicate 18): 1.497
Surface SNAP-GIPR expression ([3]; replicate 19): 1.272
Surface SNAP-GIPR expression ([3]; replicate 20): 1.519
Surface SNAP-GIPR expression ([3]; replicate 21): 1.502
Surface SNAP-GIPR expression ([3]; replicate 22): 1.331
Surface SNAP-GIPR expression ([3]; replicate 23): 1.374
Surface SNAP-GIPR expression ([3]; replicate 24): 1.462
Surface SNAP-GIPR expression ([3]; replicate 25): 1.289
Surface SNAP-GIPR expression ([3]; replicate 26): 1.598
Surface SNAP-GIPR expression ([3]; replicate 27): 1.353
Surface SNAP-GIPR expression ([3]; replicate 28): 1.177
Surface SNAP-GIPR expression ([3]; replicate 29): 1.377
Surface SNAP-GIPR expression ([3]; replicate 30): 1.555
Surface SNAP-GIPR expression ([3]; replicate 31): 1.582
Surface SNAP-GIPR expression ([3]; replicate 32): 1.61
Surface SNAP-GIPR expression ([3]; replicate 33): 1.695
Surface SNAP-GIPR expression ([3]; replicate 34): 1.496
Surface SNAP-GIPR expression ([3]; replicate 35): 1.543
Surface SNAP-GIPR expression ([3]; replicate 36): 1.703
Surface SNAP-GIPR expression ([3]; replicate 37): 1.143
Surface SNAP-GIPR expression ([3]; replicate 38): 1.04
Surface SNAP-GIPR expression ([3]; replicate 39): 1.054
Surface SNAP-GIPR expression ([3]; replicate 40): 1.392
Surface SNAP-GIPR expression ([3]; replicate 41): 1.284
Surface expression [4]: 1.239
AD293 100 pM cADDis ([5]; AD293, 100 pM): 35.8816
AD293 100 nM cADDis ([5]; AD293, 100 nM): 38.26
INS-1 cAMP (100 nM) [6]: 1.4138
+GIP internalisation (100 nM) ([7]; Fig 4G, GIP 100 nM): 0.5824
GIP-specific internalisation (100 nM) ([7]; Fig 4G, GIP 100 nM): 0.1595
Constitutive internalisation (100 nM) ([7]; Fig 4G): 0.4229
Internalisation, +GIP ([7]; Fig S4C, INS-1): 49.74
Internalisation, GIP-only ([7]; Fig S4C, INS-1): 13.34
Internalisation, Vehicle ([7]; Fig S4C, INS-1): 36.4

— paper PMC13544220, “Glycemic and bodyweight effects of GIPR coding variation reflect differences in surface expression and intrinsic functional impairment” (Science Advances, 2026)
